The values below come from US20260097122A1 (AUTOLUS, published 2026).

In the assay the target is T1, recombinant soluble CD22 ectodomain (human, UniProt P20273 20-687).
T1 construct: extracellular domain; Staining reagent used to detect the 9A8 CAR on T cells; also called soluble recombinant CD22 ectodomain
T1 sequence (looked up): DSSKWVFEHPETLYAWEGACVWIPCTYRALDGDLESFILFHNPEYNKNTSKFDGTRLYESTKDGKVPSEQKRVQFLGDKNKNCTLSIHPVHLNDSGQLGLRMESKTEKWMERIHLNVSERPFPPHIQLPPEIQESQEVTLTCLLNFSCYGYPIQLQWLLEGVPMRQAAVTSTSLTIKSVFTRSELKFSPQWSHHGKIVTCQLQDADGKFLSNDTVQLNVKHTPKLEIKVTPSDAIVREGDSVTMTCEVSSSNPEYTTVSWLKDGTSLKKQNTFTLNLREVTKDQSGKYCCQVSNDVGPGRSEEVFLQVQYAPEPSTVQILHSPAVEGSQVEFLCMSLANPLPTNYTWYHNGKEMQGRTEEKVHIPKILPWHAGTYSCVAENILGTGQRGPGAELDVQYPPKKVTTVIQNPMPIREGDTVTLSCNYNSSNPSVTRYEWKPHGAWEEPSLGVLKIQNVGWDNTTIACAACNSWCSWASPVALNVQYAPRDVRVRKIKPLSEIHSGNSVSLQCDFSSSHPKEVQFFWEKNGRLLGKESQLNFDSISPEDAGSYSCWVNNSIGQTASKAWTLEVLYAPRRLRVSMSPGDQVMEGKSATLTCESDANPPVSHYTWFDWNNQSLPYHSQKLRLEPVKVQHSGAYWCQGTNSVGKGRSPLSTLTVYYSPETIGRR
The assay can be described thus: flow cytometry of CD19 CATCAR T cells stained with anti-idiotype and soluble recombinant CD22 ectodomain [cont.) F]. The source says:
FIG. 4. AUTO1/22 CAR T cells enhanced activity in vivo. A) Schedule of the in vivo model. B) and C) NSG mice were intravenously injected with 1×10⁶ Nalm-6 WT (B) or Nalm-6 CD19KO (neg) cells (C), and treated with non-transduced (NT), AUTO1 or AUTO1/22 normal donor T cells. Serial bioluminescence imaging was taken. All cells expressed HA-tagged firefly Luciferase. D) and E) Spider plot showing bioluminescence flux for each mouse over time; Nalm-6 WT (D) or Nalm-6 CD19KO (neg) cells (E). F) In vivo expansion of the different CAR T cell populations. Differential engraftment of different CAR T cell populations. The proportion of the different subpopulation of CAR T cells was determined by staining for AUTO1 with anti-idiotype and 9A8CAR with soluble recombinant CD22 ectodomain. […]
Next, the function of CD19 CAR T cells (AUTO1) and CD19/22 co-transduced CAR T cells (AUTO1/22) in vivo was determined. […] NALM6 cells were first engrafted in NSG mice by tail-vein injection, and their engraftment determined by bioluminescence imaging (BLI). […] NALM6 burden was measured sequentially using BLI. […] NALM6 burden and CAR T-cell engraftment was determined by flow cytometry.
Finally, the proportion of AUTO1, CD22CAR and AUTO1/22 CAR T cells engrafted in mice at sacrifice was determined by flow-cytometry of marrow aspirate.
On the technique in general: In flow cytometry, cells or beads pass a laser one at a time.

B1: CD19 CATCAR (second-generation CD19 CAR, aCD19cat-CD8STK-41BBZ) (other)
chain: QVQLQQSGPELVKPGASVKISCKASGYAFSSSWMNWVKQRPGKGLEWIGRIYPGDEDTNYSGKFKDKATLTADKSSTTAYMQLSSLTSEDSAVYFCARSLLYGDYLDYWGQGTTLTVSSGGGGSGGGGSGGGGSQIVLTQSPAIMSASPGEKVTMTCSASSSVSYMHWYQQKSGTSPKRWIYDTSKLASGVPDRFSGSGSGTSYFLTINNMEAEDAATYYCQQWNINPLTFGAGTKLELKRSDPTTTPAPRPPTPAPTIASQPLSLRPEACRPAAGGAVHTRGLDFACDIYIWAPLAGTCGVLLLSLVITLYCKRGRKKLLYIFKQPFMRPVQTTQEEDGCSCRFPEEEEGGCELRVKFSRSADAPAYQQGQNQLYNELNLGRREEYDVLDKRRGRDPEMGGKPRRKNPQEGLYNELQKDKMAEAYSEIGMKGERRRGKGHDGLYQGLSTATKDTYDALHMQALPPR
notes: Chimeric antigen receptor expressed on the surface of transduced T cells: CAT19 scFv, CD8 stalk spacer and transmembrane domain, 4-1BB-CD3 zeta endodomain; also called CAT19CAR; CATi9CAR
With B1, the binding result was “no binding”.
